Test results published in article PMC2886958 (The Journal of General Virology, 2008).

Biological target: ACE-2–GFP, secreted form of angiotensin converting enzyme-2 fused to green fluorescent protein (UniProt Q9BYF1)
Test: SPR; format not told in the text (Supplementary Fig. S2)

Sequence of ACE-2–GFP, secreted form of angiotensin converting enzyme-2 fused to green fluorescent protein (Q9BYF1 18-740): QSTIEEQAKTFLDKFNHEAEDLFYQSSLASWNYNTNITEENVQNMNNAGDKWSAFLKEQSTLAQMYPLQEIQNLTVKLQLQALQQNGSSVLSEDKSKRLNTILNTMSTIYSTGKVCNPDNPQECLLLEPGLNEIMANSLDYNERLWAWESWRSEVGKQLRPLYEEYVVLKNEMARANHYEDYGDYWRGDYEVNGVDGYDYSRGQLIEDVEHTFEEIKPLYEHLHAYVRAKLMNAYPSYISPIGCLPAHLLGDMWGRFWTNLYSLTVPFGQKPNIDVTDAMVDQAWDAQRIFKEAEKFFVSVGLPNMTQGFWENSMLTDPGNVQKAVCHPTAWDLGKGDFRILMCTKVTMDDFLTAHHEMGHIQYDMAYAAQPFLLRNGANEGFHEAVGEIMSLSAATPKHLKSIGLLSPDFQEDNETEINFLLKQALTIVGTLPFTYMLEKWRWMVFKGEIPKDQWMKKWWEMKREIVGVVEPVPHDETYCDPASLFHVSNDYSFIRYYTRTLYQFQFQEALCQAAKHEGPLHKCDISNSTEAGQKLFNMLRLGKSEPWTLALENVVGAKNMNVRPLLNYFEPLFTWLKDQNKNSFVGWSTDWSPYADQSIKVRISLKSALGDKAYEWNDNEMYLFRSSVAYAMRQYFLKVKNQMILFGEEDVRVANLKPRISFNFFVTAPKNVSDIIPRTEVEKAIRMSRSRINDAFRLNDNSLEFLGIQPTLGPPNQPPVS

B1: SARS-CoV S1 (residues 19–713), Fc-tagged fusion protein (Fc fusion)
chain: not shown
Kd: 0.0871 µM
